From patent publication US20240109955A1 come the findings set out here.

What all share (assay): cell-based or functional assay
Assay [1] addresses SARS-CoV-2 Omicron BA.2.75.2 spike protein (SARS-CoV-2).
The target in assay [2] is SARS-CoV-2 Omicron BA.4/5 spike protein (SARS-CoV-2).
Assay [3] concerns the target SARS-CoV-2 Omicron BQ.1.1 spike protein (SARS-CoV-2).
Assay [4] has as its target SARS-CoV-2 spike (S) protein, Omicron sublineage BA.2.75.2 (SARS-CoV-2).
For assay [5], the target named is SARS-CoV-2 spike (S) protein, Omicron sublineage BA.4/5 (SARS-CoV-2).
Assay [6] addresses SARS-CoV-2 spike (S) protein, Omicron sublineage BQ.1.1 (SARS-CoV-2).
Assay [7] addresses SARS-CoV-2 spike protein, Omicron BA.4/5 (SARS-CoV-2).
The target in assay [8] is SARS-CoV-2 spike protein, Omicron BQ.1.1 (SARS-CoV-2).
For assay [9], the target named is SARS-CoV-2 spike protein, Omicron sublineage BA.4/5 (SARS-CoV-2) (UniProt P0DTC2).
In assay [10] the target is SARS-CoV-2 spike protein, Omicron sublineage BF.7 (SARS-CoV-2) (UniProt P0DTC2).
Assay [11] deals with SARS-CoV-2 spike protein, Omicron sublineage BQ.1.1 (SARS-CoV-2) (UniProt P0DTC2).
Assay [12] addresses SARS-CoV-2 spike protein, Omicron sublineage XBB1.5 (SARS-CoV-2) (UniProt P0DTC2).
Assay [13] has as its target SARS-CoV-2 Omicron BA.1 spike protein (SARS-CoV-2) (UniProt P0DTC2).
In assay [14] the target is SARS-CoV-2 Omicron BA.4/5 spike protein ([change]) (SARS-CoV-2) (UniProt P0DTC2).
Assay [15] concerns the target SARS-CoV-2 spike protein, Omicron sublineage BA.2 (SARS-CoV-2) (UniProt P0DTC2).
The target of assay [16] is SARS-CoV-2 spike protein, Omicron sublineage BA.2.12.1 (SARS-CoV-2) (UniProt P0DTC2).
Assay [17] deals with SARS-CoV-2 Omicron BA.2.75.2 spike protein (SARS-CoV-2) (UniProt P0DTC2).
Assay [18] concerns the target SARS-CoV-2 Omicron BQ.1.1 spike protein (SARS-CoV-2) (UniProt P0DTC2).
Assay [19] has as its target SARS-CoV-2 Omicron XBB spike protein (SARS-CoV-2) (UniProt P0DTC2).
Assay [20] concerns the target SARS-CoV-2 spike protein, Omicron sublineage XBB (SARS-CoV-2) (UniProt P0DTC2).

MX413 (A19-61 x A23-58H/B1-182L) (bispecific antibody), sequence (chain): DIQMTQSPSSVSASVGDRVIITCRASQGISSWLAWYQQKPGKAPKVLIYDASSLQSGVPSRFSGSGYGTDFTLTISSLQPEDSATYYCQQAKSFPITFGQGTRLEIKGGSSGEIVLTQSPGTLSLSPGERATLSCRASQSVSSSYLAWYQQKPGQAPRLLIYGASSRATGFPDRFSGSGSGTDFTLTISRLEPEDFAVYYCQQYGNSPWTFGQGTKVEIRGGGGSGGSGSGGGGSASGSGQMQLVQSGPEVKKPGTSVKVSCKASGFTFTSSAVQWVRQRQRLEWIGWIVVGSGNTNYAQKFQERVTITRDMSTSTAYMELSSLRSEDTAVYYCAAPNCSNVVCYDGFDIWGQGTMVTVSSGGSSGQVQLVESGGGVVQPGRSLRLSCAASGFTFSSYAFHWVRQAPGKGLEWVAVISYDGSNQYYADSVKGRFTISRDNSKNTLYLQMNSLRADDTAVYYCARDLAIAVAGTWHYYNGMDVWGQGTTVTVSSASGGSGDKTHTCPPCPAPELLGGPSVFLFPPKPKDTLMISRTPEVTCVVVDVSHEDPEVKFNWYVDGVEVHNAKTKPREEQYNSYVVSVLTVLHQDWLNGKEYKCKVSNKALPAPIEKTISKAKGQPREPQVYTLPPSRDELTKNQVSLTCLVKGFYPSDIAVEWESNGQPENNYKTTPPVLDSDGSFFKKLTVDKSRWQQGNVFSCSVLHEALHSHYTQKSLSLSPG
MX492 (A19-46 x A23-58H/B1-182L) (bispecific antibody), sequence (chain): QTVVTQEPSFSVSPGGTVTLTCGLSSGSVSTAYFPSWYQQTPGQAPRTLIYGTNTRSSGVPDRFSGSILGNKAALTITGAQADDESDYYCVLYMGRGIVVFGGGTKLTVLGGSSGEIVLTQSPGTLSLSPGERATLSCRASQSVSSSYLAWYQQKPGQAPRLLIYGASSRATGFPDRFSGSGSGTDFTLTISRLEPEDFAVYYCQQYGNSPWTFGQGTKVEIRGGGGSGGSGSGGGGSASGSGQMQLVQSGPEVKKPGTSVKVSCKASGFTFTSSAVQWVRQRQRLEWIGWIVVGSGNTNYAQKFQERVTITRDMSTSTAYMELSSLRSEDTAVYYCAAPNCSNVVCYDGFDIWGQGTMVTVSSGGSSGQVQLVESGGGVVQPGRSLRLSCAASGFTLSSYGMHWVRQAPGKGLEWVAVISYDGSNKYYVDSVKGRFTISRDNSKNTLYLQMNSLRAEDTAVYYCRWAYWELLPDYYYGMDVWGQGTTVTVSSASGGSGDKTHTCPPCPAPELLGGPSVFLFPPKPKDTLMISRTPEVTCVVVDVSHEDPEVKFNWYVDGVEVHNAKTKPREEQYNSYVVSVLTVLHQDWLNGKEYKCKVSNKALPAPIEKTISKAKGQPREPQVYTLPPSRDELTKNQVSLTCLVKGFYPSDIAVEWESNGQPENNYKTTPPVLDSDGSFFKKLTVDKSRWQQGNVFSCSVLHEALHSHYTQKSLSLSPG
A19-46 (antibody), sequence (VH): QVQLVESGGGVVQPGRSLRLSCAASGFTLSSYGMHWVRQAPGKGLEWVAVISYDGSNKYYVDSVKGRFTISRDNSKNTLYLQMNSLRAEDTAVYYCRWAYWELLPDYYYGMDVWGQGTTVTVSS
A19-46 (antibody), sequence (VL): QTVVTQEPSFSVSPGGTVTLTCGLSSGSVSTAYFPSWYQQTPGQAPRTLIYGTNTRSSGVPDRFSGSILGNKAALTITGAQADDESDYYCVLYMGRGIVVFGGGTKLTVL
A19-46.1 (antibody), sequence (VH): as the sequence (VH) above
A19-46.1 (antibody), sequence (VL): as the sequence (VL) above

For A19-46 (antibody), the IC50, pseudovirus neutralization is greater than 10 µg/mL in assay [1]; greater than 10 µg/mL in assay [2]; 0.386 µg/mL in assay [3]; greater than 10 µg/mL in [4]; greater than 10 µg/mL in assay [5]; 0.386 µg/mL in assay [6]. The IC50, pseudovirus neutralization in [7] was greater than 10 µg/mL; in assay [8], 0.386 µg/mL; in assay [9], greater than 10000 nM; in [10] it was 5300 nM; in [11], 386 nM; in assay [12], greater than 10000 nM. The IC80, pseudovirus neutralization in assay [1] was greater than 10 µg/mL; in assay [2], greater than 10 µg/mL; in assay [3], 1.11 µg/mL; in assay [4], greater than 10 µg/mL; in assay [5], greater than 10 µg/mL; in [6], 1.11 µg/mL. The IC80, pseudovirus neutralization in assay [7] was greater than 10 µg/mL; in [8], 1.11 µg/mL; in assay [9] it was greater than 10000 nM; in assay [10], greater than 10000 nM; in assay [11] it was 1110 nM; in assay [12], greater than 10000 nM.

In the case of A19-46.1 (antibody), in assay [13], the IC50, pseudovirus neutralization came to 77 nM and the IC80, pseudovirus neutralization turned out to be 211 nM. In assay [14], this substance showed an IC50, pseudovirus neutralization greater than 10000 nM and an IC80, pseudovirus neutralization greater than 10000 nM.

As for A19-61.1 (antibody), in assay [13], the IC50, pseudovirus neutralization is greater than 10000 nM and the IC80, pseudovirus neutralization was greater than 10000 nM. In [14], this substance displayed an IC50, pseudovirus neutralization of 19 nM and an IC80, pseudovirus neutralization of 31 nM.

Turning to A23-58.1 (antibody), the results for the IC50, pseudovirus neutralization in assay [15] and in [16] were 263 nM and 100 nM, respectively. The IC80, pseudovirus neutralization in assay [15] was 1080 nM; in [16], 504 nM.

On to A23-58H/B1-182L hybrid antibody, for which the IC50, pseudovirus neutralization is 53 nM in assay [13] and greater than 10000 nM in assay [14]. Further, the IC80, pseudovirus neutralization in [13] is 90 nM; in assay [14], greater than 10000 nM.

Turning to B1-182.1 (antibody), in assay [15], the IC50, pseudovirus neutralization came out at 320 nM and the IC80, pseudovirus neutralization was determined as 1210 nM. In assay [16], this substance registered an IC50, pseudovirus neutralization of 165 nM and an IC80, pseudovirus neutralization of 1380 nM.

Consider “MX413 (A19-61 x A23-58H/B1-182L) (bispecific antibody)”, for which the IC50, pseudovirus neutralization in assay [13] was 1290 nM; in [14] it was 4 nM. Besides, the IC80, pseudovirus neutralization in assay [13] turned out to be 6540 nM; in assay [14], 8 nM.

In [13], “MX492 (A19-46 x A23-58H/B1-182L) (bispecific antibody)” showed an IC50, pseudovirus neutralization of 1 nM and an IC80, pseudovirus neutralization of 3 nM. In assay [14], this substance came in with an IC50, pseudovirus neutralization greater than 10000 nM and an IC80, pseudovirus neutralization greater than 10000 nM.

In assay [15], S2E12 (antibody) registered an IC50, pseudovirus neutralization of 9.9 nM and an IC80, pseudovirus neutralization of 48.2 nM. For the same substance, in assay [16], the IC50, pseudovirus neutralization was 15.6 nM and the IC80, pseudovirus neutralization was 46.6 nM.

On to bebtelovimab (antibody), for which the IC50, pseudovirus neutralization in assay [13] is 1 nM; in [17], 0.00567 µg/mL; in [18], greater than 10 µg/mL; in assay [19] it was greater than 10 µg/mL; in assay [15] it was 14.3 nM; in [16] it was 8.52 nM. Besides, the IC50, pseudovirus neutralization in assay [9] was 1.88 nM; in assay [10], 3.28 nM; in [11], greater than 10000 nM; in assay [20], greater than 10000 nM; in [12], greater than 10000 nM. Moreover, the IC80, pseudovirus neutralization was 7 nM in assay [13]; 0.0207 µg/mL in assay [17]; 1 nM in assay [14]; greater than 10 µg/mL in [18]; greater than 10 µg/mL in [19]; 18.5 nM in assay [15]. For the same substance, the IC80, pseudovirus neutralization in [16] is 14.8 nM; in assay [9], 3.74 nM; in assay [10], 26.9 nM; in assay [11] it was greater than 10000 nM; in assay [20], greater than 10000 nM; in assay [12] it was greater than 10000 nM.
